Reference: paper PMC12416549 (2024)
Substitutions are numbered along the chain they refer to. Names may count otherwise.

T1: TNFR1 (Homo sapiens, UniProt P19438)
T1 chain: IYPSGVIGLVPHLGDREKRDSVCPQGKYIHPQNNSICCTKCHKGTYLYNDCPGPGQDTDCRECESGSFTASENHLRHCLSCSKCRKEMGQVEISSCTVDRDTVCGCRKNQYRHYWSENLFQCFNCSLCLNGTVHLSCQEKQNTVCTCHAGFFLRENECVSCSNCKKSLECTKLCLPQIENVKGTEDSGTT

B1: G54R (designed binder)
chain: MTLQELLREEALRRAEAEAFRYALELLAEKFPEQKEYLLDLAEEIESQIRSLSRVDVEDVRKFLDKEWAWVKELLAEHPAELAEVEAARAARLAELRAEVEAKVAA
B2: L7A (designed binder)
chain: B1 chain with L7A, R54G
B3: L24A (designed binder)
chain: B1 chain with L24A, R54G
B4: L64F (designed binder)
chain: B1 chain with R54G, L64F
B5: R92Y (designed binder)
chain: B1 chain with R54G, R92Y
B6: A105N (designed binder)
chain: B1 chain with R54G, A105N
B7: K30W (designed binder)
chain: B1 chain with K30W, R54G
B8: Q48K (designed binder)
chain: B1 chain with Q48K, R54G
B9: D40Q (designed binder)
chain: B1 chain with D40Q, R54G
B10: A88D (designed binder)
chain: B1 chain with R54G, A88D
B11: K72D (designed binder)
chain: B1 chain with R54G, K72D
B12: V55N (designed binder)
chain: B1 chain with R54G, V55N
B13: P32V (designed binder)
chain: B1 chain with P32V, R54G
B14: E9F (designed binder)
chain: B1 chain with E9F, R54G
B15: F31Q (designed binder)
chain: B1 chain with F31Q, R54G
B16: V55E (designed binder)
chain: B1 chain with R54G, V55E
B17: Q34T (designed binder)
chain: B1 chain with Q34T, R54G
B18: F31A (designed binder)
chain: B1 chain with F31A, R54G
B19: A11I (designed binder)
chain: B1 chain with A11I, R54G
B20: L96Q (designed binder)
chain: B1 chain with R54G, L96Q
B21: W70Y (designed binder)
chain: B1 chain with R54G, W70Y
B22: H78C (designed binder)
chain: B1 chain with R54G, H78C
B23: E10K (designed binder)
chain: B1 chain with E10K, R54G
B24: E101H (designed binder)
chain: B1 chain with R54G, E101H
B25: A15E (designed binder)
chain: B1 chain with A15E, R54G
B26: W70D (designed binder)
chain: B1 chain with R54G, W70D
B27: A42W (designed binder)
chain: B1 chain with A42W, R54G
B28: V85P (designed binder)
chain: B1 chain with R54G, V85P
B29: L26M (designed binder)
chain: B1 chain with L26M, R54G
B30: E73G (designed binder)
chain: B1 chain with R54G, E73G
B31: V104Q (designed binder)
chain: B1 chain with R54G, V104Q
B32: A83C (designed binder)
chain: B1 chain with R54G, A83C
B33: W70T (designed binder)
chain: B1 chain with R54G, W70T
B34: A28Y (designed binder)
chain: B1 chain with A28Y, R54G
B35: W70H (designed binder)
chain: B1 chain with R54G, W70H
B36: F20M (designed binder)
chain: B1 chain with F20M, R54G
B37: A105K (designed binder)
chain: B1 chain with R54G, A105K
B38: R14K (designed binder)
chain: B1 chain with R14K, R54G
B39: L12C (designed binder)
chain: B1 chain with L12C, R54G
B40: L41G (designed binder)
chain: B1 chain with L41G, R54G
B41: W70K (designed binder)
chain: B1 chain with R54G, W70K
B42: G54T (designed binder)
chain: B1 chain with R54T
B43: F63D (designed binder)
chain: B1 chain with R54G, F63D
B44: E67R (designed binder)
chain: B1 chain with R54G, E67R
B45: A94T (designed binder)
chain: B1 chain with R54G, A94T
B46: E36V (designed binder)
chain: B1 chain with E36V, R54G
B47: K62T (designed binder)
chain: B1 chain with R54G, K62T
B48: V104N (designed binder)
chain: B1 chain with R54G, V104N
B49: E33H (designed binder)
chain: B1 chain with E33H, R54G
B50: A106V (designed binder)
chain: B1 chain with R54G, A106V
B51: A91T (designed binder)
chain: B1 chain with R54G, A91T
B52: G54W (designed binder)
chain: B1 chain with R54W
B53: H78N (designed binder)
chain: B1 chain with R54G, H78N
B54: E58M (designed binder)
chain: B1 chain with R54G, E58M
B55: L26F (designed binder)
chain: B1 chain with L26F, R54G
B56: S47C (designed binder)
chain: B1 chain with S47C, R54G
B57: W70P (designed binder)
chain: B1 chain with R54G, W70P
B58: R61Q (designed binder)
chain: B1 chain with R54G, R61Q
B59: L64P (designed binder)
chain: B1 chain with R54G, L64P

Molecular target: T1, TNFR1
Assay: yeast display SC50

| Binder | apparent Kd (screen) [nM] |
| --- | --- |
| B1 | 3.3 |
| B2 | 11.4 |
| B3 | 1.54 |
| B4 | 0.869 |
| B5 | 0.49 |
| B6 | 0.593 |
| B7 | 0.653 |
| B8 | 7.07 |
| B9 | 0.446 |
| B10 | 0.593 |
| B11 | 1.05 |
| B12 | 0.956 |
| B13 | 0.593 |
| B14 | 0.49 |
| B15 | 0.653 |
| B16 | 15.2 |
| B17 | 0.539 |
| B18 | 0.49 |
| B19 | 0.368 |
| B20 | 0.539 |

| Binder | apparent Kd (screen) [nM] |
| --- | --- |
| B21 | 1.86 |
| B22 | 0.593 |
| B23 | 8.56 |
| B24 | 0.718 |
| B25 | 0.718 |
| B26 | 12.5 |
| B27 | 4.83 |
| B28 | 2.25 |
| B29 | 0.593 |
| B30 | 0.718 |
| B31 | 0.49 |
| B32 | 0.869 |
| B33 | 29.5 |
| B34 | 22.2 |
| B35 | 12.5 |
| B36 | 0.869 |
| B37 | 0.869 |
| B38 | 0.49 |
| B39 | 0.79 |
| B40 | 12.5 |

| Binder | apparent Kd (screen) [nM] |
| --- | --- |
| B41 | 5.84 |
| B42 | 0.446 |
| B43 | 7.07 |
| B44 | 8.56 |
| B45 | 0.539 |
| B46 | 1.05 |
| B47 | 0.539 |
| B48 | 0.593 |
| B49 | 0.49 |
| B50 | 0.653 |
| B51 | 0.593 |
| B52 | 2.73 |
| B53 | 0.539 |
| B54 | 0.49 |
| B55 | 0.593 |
| B56 | 0.718 |
| B57 | 11.4 |
| B58 | 0.539 |
| B59 | 3.99 |
